Results on two molecules are retold here after article PMC4718742 (Nature chemical biology, 2015).

Assay [1] addresses T1, human CypA (1–165) (human, UniProt P62937 1-165).
For assay [2], the target named is T1, human CypA (1–165). The experiment in a line: NMR titration.

B1: CrkII^P218F (natural protein)
chain: MAGNFDSEERSSWYWGRLSRQEAVALLQGQRHGVFLVRDSSTSPGDYVLSVSENSRVSHYIINSSGPRPPVPPSPAQPPPGVSPSRLRIGDQEFDSLPALLEFYKIHYLDTTTLIEPVSRSRQGSGVILRQEEAEYVRALFDFNGNDEEDLPFKKGDILRIRDKPEEQWWNAEDSEGKRGMIPVPYVEKYRPASASVSALIGGNQEGSHPQPLGGPEFGPYAQPSVNTPLPNLQNGPIYARVIQKRVPNAYDKTALALEVGELVKVTKINVSGQWEGECNGKRGHFPFTHVRLLDQQNP
Consider B1, for which the “fold higher affinity than wild-type CrkII” value in assay [1] is approximately 20 fold.

B2: CrkII peptide (Pro216-Ser225) (peptide)
peptide: PEPGPYAQPS
On to B2, for which, in assay [2], the binding result is “binds”.
